Laboratory results: patent publication EP0693936B1

Biological target: native OmpL1, 31-kDa outer membrane protein of Leptospira alstoni (Leptospira alstoni)
Test: immunoelectron microscopy of intact L. alstoni, protein G-colloidal gold (control serum)

preimmune serum from the same rabbit as the anti-OmpL1 antiserum (control serum)
gold particles per twenty organisms (particles per twenty organisms): 1
